Measured values published in US20140303084A1 (Biogen, published 2014).
Bridge positions count the residues as written; N and C are the ends. Square brackets hold non-standard residues; d marks the D form. Primed or numbered codes have the meaning given here. Side chains are listed from the residue outwards. Ends that are not written are not given here. * marks the point of attachment. :N‑O‑CH2‑CO‑PEG27 = oxime linkage (=N-O-CH2-CO-) to a PEG27 spacer; Biotin = O=C1N[C@H]2[C@H](CS[C@H]2CCCCC(=O)*)N1; PEG2(3) = PEG2 spacer carrying biotin on Lys; Palmitoyl = CCCCCCCCCCCCCCCC(=O)*; NMeL = CN[C@@H](CC(C)C)C(=O)O; Tle = CC(C)(C)[C@H](N)C(=O)O; PEG16″ = not defined here; Nle = CCCC[C@H](N)C(=O)O; PEG2″ = not defined here; PEG16′ = PEG-16 spacer

B1: Palmitoyl-(PEG)27(PEG)27-KLTCLASYCWLF (peptide)
peptide: {Palmitoyl-(PEG)27-(PEG)27}-KLTCLASYCWLF
modifications: disulfide 4-9 (inferred); not fully specified (C-terminus); printed as Palmitoyl-(PEG)27(PEG)27-KLTCLASYCWLF
B2: rRAAGKATCLASACW LAATGIA (peptide)
peptide: [dR]RAAGKATCLASACWLAATGIA
modifications: not fully specified (C-terminus); printed as rRAAGKATCLASACW LAATGIA; cysteine pairing not given here
B3: KLLKLLLKLLLKLLK-k-MeLeu-TCLASYCWLF (peptide)
peptide: KLLKLLLKLLLKLLK[dK][NMeL]TCLASYCWLF
modifications: not fully specified; printed as KLLKLLLKLLLKLLK-k-MeLeu-TCLASYCWLF; cysteine pairing not given here
B4: rRAPGKSTCLASYCWLFWTGIA (peptide)
peptide: [dR]RAPGKSTCLASYCWLFWTGIA
modifications: not fully specified (C-terminus); printed as rRAPGKSTCLASYCWLFWTGIA; cysteine pairing not given here
B5: rRAPGKLTCLASYCWLSWTGIA (peptide)
peptide: [dR]RAPGKLTCLASYCWLSWTGIA
modifications: not fully specified; printed as rRAPGKLTCLASYCWLSWTGIA; cysteine pairing not given here
B6: rRAAGKLTCLASYCWLAATGIA (peptide)
peptide: [dR]RAAGKLTCLASYCWLAATGIA
modifications: not fully specified (C-terminus); printed as rRAAGKLTCLASYCWLAATGIA; cysteine pairing not given here
B7: rRAAGKLTCLASACWLFATGIA (peptide)
peptide: [dR]RAAGKLTCLASACWLFATGIA
modifications: not fully specified (C-terminus); printed as rRAAGKLTCLASACWLFATGIA; cysteine pairing not given here
B8: rRAAGKLTCLASYCWLFATGIA (peptide)
peptide: [dR]RAAGKLTCLASYCWLFATGIA
modifications: not fully specified (C-terminus); printed as rRAAGKLTCLASYCWLFATGIA; cysteine pairing not given here
B9: RRAPGKLQCLASYCWLFWTG-Nle-A (peptide)
peptide: RRAPGKLQCLASYCWLFWTG[Nle]A
modifications: not fully specified; printed as RRAPGKLQCLASYCWLFWTG-Nle-A; cysteine pairing not given here
B10: rRASGKLTCLASYCWLFWTGIA (peptide)
peptide: [dR]RASGKLTCLASYCWLFWTGIA
modifications: not fully specified (C-terminus); printed as rRASGKLTCLASYCWLFWTGIA; cysteine pairing not given here
B11: rRAPGKLTCLASYCWLFSTGIA (peptide)
peptide: [dR]RAPGKLTCLASYCWLFSTGIA
modifications: not fully specified (C-terminus); printed as rRAPGKLTCLASYCWLFSTGIA; cysteine pairing not given here
B12: RRAPGKLQCLASYCWLFWTG-Tle-A (peptide)
peptide: RRAPGKLQCLASYCWLFWTG[Tle]A
modifications: not fully specified; printed as RRAPGKLQCLASYCWLFWTG-Tle-A; cysteine pairing not given here
B13: H3N-KLTCLASYCWLFG═N-O-CH2-CO-PEG27-CNPRGD-(Y-OEt)-RC (peptide)
peptide: H-KLTCLASYCWLFG[:N‑O‑CH2‑CO‑PEG27]CNPRGDY(OEt)RC
modifications: numbers in words are those of the source; cysteine pairing not given here; also: oxime link =N-O-CH2-CO-PEG27 between G13 and C14, Y20 as Y-OEt

Target: human Factor IXa (human, UniProt P00740 47-191; P00740 227-461)
Assay: cell-based or functional assay

Binder | EC50 [µM], FXa generation assay [µM] | EC50 [µM], FXa generation assay with hFIXa [µM]
ARAPGKLQCLASYCWLFWTGIA | < 0.5 | –
B1 | > 20 | –
B2 | > 10 | –
B3 | < 0.5 | –
[dR]RAPGKLTCLASYCWLFWTGIA[PEG16′]K([PEG2(3)-Biotin])[PEG16′]K(Palmitoyl) (cysteine pairing not given here) [rRAPGKLTCLASYCWLFWTGIA-PEG16-Lys(PEG2-Biotin)-PEG16-Lys(palmitoyl)] | > 1 | –
B4 | < 0.5 | –
[dR]RAPGKLTCLASYCWLFWTGIA[PEG16″]K([PEG2″-Biotin])[PEG16″] (cysteine pairing not given here) [rRAPGKLTCLASYCWLFWTGIA-PEG16-Lys(PEG2-Biotin)-PEG16] | < 0.5 | –
GKLQCLASYCWLFWTGIA | < 0.5 | –
APGKLQCLASYCWLFWTGIA | < 0.5 | –
[PEG16″]K([PEG2″-Biotin])[PEG16″][dR]RAPGKLTCLASYCWLFWTGIA (cysteine pairing not given here) [PEG16-Lys(PEG2-Biotin)-PEG16-rRAPGKLTCLASYCWLFWTGIA] | > 1 | –
B5 | > 5 | –
RRAPGKLQCLASYCWLFWTG | > 1 | –
RAPGKLQCLASYCWLFWTGIA | < 0.5 | –
R[dR]APGKLTCLASYCWLFWTGIA-NH2 (cysteine pairing not given here) [compound 6] | – | < 0.5
B6 | > 10 | –
B7 | > 1 | –
RAAPGKLQCLASYCWLFWTGIA | < 0.5 | –
RRAPK([PEG2(3)-Biotin])KLTCLASYCWLFWTGIA-NH2 (cysteine pairing not given here) [compound 20] | – | < 0.5
PGKLQCLASYCWLFWTGIA | < 0.5 | –
B8 | < 0.5 | –
B9 | < 0.5 | –
RRAPGKLQCLASYCWLFWT | > 1 | –
RRAPGKLQCLASYCWLFWTGLA | < 0.5 | –
B10 | < 0.5 | –
B11 | < 0.5 | –
RRAPGKLQCLASYCWLFW | > 1 | –
{Palmitoyl-(PEG)27}-KLTCLASYCWLF (cysteine pairing not given here) [Palmitoyl-(PEG)27-KLTCLASYCWLF] | > 1 | –
B12 | < 0.5 | –
B13 | > 50 | –
RRAPGKLQCLASYCWLF | > 5 | –
